The target of this assay is SVGmu, modified Sindbis virus envelope glycoprotein (SEQ ID NO: 11) (Sindbis virus) (UniProt P03316). In words: confocal imaging; anti-HA-biotin plus Cy5-streptavidin staining of GFP-vpr-labeled lentiviral particles on coverslips.

For the substance “anti-HA-biotin antibody (Miltenyi Biotec)”, the fraction of GFP-labeled particles stained for SVGmu was > 90%.

The values are drawn from patent US20130230554A1.
